For experiment [1], the target named is prostate specific antigen (PSA) (UniProt P07288). As to the kind of experiment: silicon nanowire FET (p-type), antibody on the wire; f-PSA 8.5 pg/ml.
For experiment [2] the target is unchanged. As to the kind of experiment: silicon nanowire FET (p-type), antibody on the wire; f-PSA 850 pg/ml.
Experiment [3] has the same target. As to the kind of experiment: silicon nanowire FET (p-type), antibody on the wire; f-PSA 0.85 pg/ml.
Experiment [4] shares this target. As to the kind of experiment: silicon nanowire FET (p-type), antibody on the wire; f-PSA 1700 pg/ml.
Experiment [5] has as its target PSA-alpha-1-antichymotrypsin (PSA-ACT) complex (UniProt P07288). As to the kind of experiment: silicon nanowire FET (p-type), antibody on the wire; PSA-ACT 3.2 pg/ml.
The target is the same in experiment [6]. As to the kind of experiment: silicon nanowire FET (p-type), antibody on the wire; PSA-ACT 320 pg/ml.
Experiment [7] deals with prostate specific antigen (PSA) (UniProt P07288). Briefly: silicon nanowire FET (p-type), antibody on the wire; f-PSA 0.085 pg/ml.
Experiment [8] deals with PSA-alpha-1-antichymotrypsin (PSA-ACT) complex (UniProt P07288). As to the kind of experiment: silicon nanowire FET (p-type), antibody on the wire; PSA-ACT 0.32 pg/ml.
The target is the same in experiment [9]. Briefly: silicon nanowire FET (p-type), antibody on the wire; PSA-ACT 3200 pg/ml.
Experiment [10] shares this target. As to the kind of experiment: silicon nanowire FET (p-type); mixture of f-PSA 8.5, PSA-ACT 320 and free Ab1 1 x 10^7 pg/ml (f-PSA blocked by Ab1).
For experiment [11] the target is unchanged. As to the kind of experiment: silicon nanowire FET (p-type); mixture of f-PSA 850, PSA-ACT 0.32 and free Ab1 1 x 10^7 pg/ml (f-PSA blocked by Ab1).
Experiment [12] has the same target. Briefly: silicon nanowire FET (p-type); mixture of f-PSA 850, PSA-ACT 3200 and free Ab1 1 x 10^7 pg/ml (f-PSA blocked by Ab1).
Experiment [13] has the same target. As to the kind of experiment: silicon nanowire FET (p-type); mixture of f-PSA 0.85, PSA-ACT 3200 and free Ab1 1 x 10^7 pg/ml (f-PSA blocked by Ab1).

These results are taken from patent US20100112546A1.

For “monoclonal antibody anti-ACT-PSA (AbII, clone PSA1, abcam Inc.)”, the Conductance Change, nS was 81 nS in experiment [1]; 132 nS in [2]; 50 nS in experiment [3]; 154 nS in experiment [4]; 67 nS in experiment [5]; 124 nS in [6]. Also, the Conductance Change, nS is 10 nS in experiment [7]; 19 nS in experiment [8]; 143 nS in experiment [9]; 118 nS in experiment [10]; 15 nS in experiment [11]; 140 nS in [12]. For the same substance, in [13], the Conductance Change, nS turned out to be 138 nS.
